B1: human TA PD1-IL2v, MT204, 2xPQARK, in line (antibody, human IgG1, kappa, L234A L235A)
light: DIVMTQSPDSLAVSLGERATINCKASESVDTSDNSFIHWYQQKPGQSPKLLIYRSSTLESGVPDRFSGSGSGTDFTLTISSLQAEDVAVYYCQQNYDVPWTFGQGTKVEIKRTVAAPSVFIFPPSDEQLKSGTASVVCLLNNFYPREAKVQWKVDNALQSGNSQESVTEQDSKDSTYSLSSTLTLSKADYEKHKVYACEVTHQGLSSPVTKSFNRGEC
heavy 1: EVQLLESGGGLVQPGGSLRLSCAASGFSFSSYTMSWVRQAPGKGLEWVATISGGGRDIYYPDSVKGRFTISRDNSKNTLYLQMNSLRAEDTAVYYCVLLTGRVYFALDSWGQGTLVTVSSASTKGPSVFPLAPSSKSTSGGTAALGCLVKDYFPEPVTVSWNSGALTSGVHTFPAVLQSSGLYSLSSVVTVPSSSLGTQTYICNVNHKPSNTKVDKKVEPKSCDKTHTCPPCPAPEAAGGPSVFLFPPKPKDTLMISRTPEVTCVVVDVSHEDPEVKFNWYVDGVEVHNAKTKPREEQYNSTYRVVSVLTVLHQDWLNGKEYKCKVSNKALGAPIEKTISKAKGQPREPQVCTLPPSRDELTKNQVSLSCAVKGFYPSDIAVEWESNGQPENNYKTTPPVLDSDGSFFLVSKLTVDKSRWQQGNVFSCSVMHEALHNHYTQKSLSLSPG
heavy 2: not shown
notes: Bivalent human PD1-targeted human IgG PG LALA with IL2v and MT204 scFv mask 'in-line' on the C-terminus of the Fc knob chain, two PQARK sites; also called P1AG9606; P1AG9606-008
B2: human PD1-IL2v, unmasked, in line (antibody, human IgG1, kappa, L234A L235A)
light: B1 light
heavy 1: B1 heavy 1
heavy 2: not shown
notes: Bivalent human PD1-targeted human IgG PG LALA with IL2v fused to the C-terminus of the Fc knob chain (non-masked control); also called P1AA7146; P1AA7146-006
B3: human TA PD1-IL2v, MT204, non cleavable, in line (antibody, human IgG1, kappa, L234A L235A)
light: B1 light
heavy 1: B1 heavy 1
heavy 2: not shown
notes: Bivalent human PD1-targeted human IgG PG LALA with masked IL2v in-line on the Fc knob chain and no matriptase sites (non-cleavable control); also called P1AG5740; P1AG5740-004
B4: human TA PD1-IL2v, MT204, 2xPQARK, knob/hole (antibody, human IgG1, kappa, L234A L235A)
light: B1 light
heavy 1: EVQLLESGGGLVQPGGSLRLSCAASGFSFSSYTMSWVRQAPGKGLEWVATISGGGRDIYYPDSVKGRFTISRDNSKNTLYLQMNSLRAEDTAVYYCVLLTGRVYFALDSWGQGTLVTVSSASTKGPSVFPLAPSSKSTSGGTAALGCLVKDYFPEPVTVSWNSGALTSGVHTFPAVLQSSGLYSLSSVVTVPSSSLGTQTYICNVNHKPSNTKVDKKVEPKSCDKTHTCPPCPAPEAAGGPSVFLFPPKPKDTLMISRTPEVTCVVVDVSHEDPEVKFNWYVDGVEVHNAKTKPREEQYNSTYRVVSVLTVLHQDWLNGKEYKCKVSNKALGAPIEKTISKAKGQPREPQVCTLPPSRDELTKNQVSLSCAVKGFYPSDIAVEWESNGQPENNYKTTPPVLDSDGSFFLVSKLTVDKSRWQQGNVFSCSVMHEALHNHYTQKSLSLSPGGGGGSGGGGSPQARKGGGGSGGGGSGGGGSGGGGSGGGEVQLVESGGGLVQPGGSLRLSCAASGFTFSSYTLAWVRQAPGKGLEWVAAIDSSSYTYSPDTVRGRFTISRDNAKNSLYLQMNSLRAEDTAVYYCARDSNWDALDYWGQGTTVTVSSGGGGSGGPQARKGGGGSGGGDIQMTQSPSSLSASVGDRVTITCKASQNVGTNVGWYQQKPGKAPKALIYSASFRYSGVPSRFSGSGSGTDFTLTISSLQPEDFATYYCQQYYTYPYTFGGGTKVEIK
heavy 2: not shown
notes: Bivalent human PD1-targeted human IgG PG LALA; also called P1AG9607; P1AG9607-006
B5: TA PD1-IL2v, MT204, non cleavable, N-term (antibody, human IgG1, kappa, L234A L235A)
light chain of the anti-human PD1 Fab (C02011851-A): B1 light
heavy chain, Fc hole, PG LALA (C01483382-H): EVQLLESGGGLVQPGGSLRLSCAASGFSFSSYTMSWVRQAPGKGLEWVATISGGGRDIYYPDSVKGRFTISRDNSKNTLYLQMNSLRAEDTAVYYCVLLTGRVYFALDSWGQGTLVTVSSASTKGPSVFPLAPSSKSTSGGTAALGCLVKDYFPEPVTVSWNSGALTSGVHTFPAVLQSSGLYSLSSVVTVPSSSLGTQTYICNVNHKPSNTKVDKKVEPKSCDKTHTCPPCPAPEAAGGPSVFLFPPKPKDTLMISRTPEVTCVVVDVSHEDPEVKFNWYVDGVEVHNAKTKPREEQYNSTYRVVSVLTVLHQDWLNGKEYKCKVSNKALGAPIEKTISKAKGQPREPQVCTLPPSRDELTKNQVSLSCAVKGFYPSDIAVEWESNGQPENNYKTTPPVLDSDGSFFLVSKLTVDKSRWQQGNVFSCSVMHEALHNHYTQKSLSLSPGK
MT204 scFv mask - non-cleavable linker - IL2v - Fc knob chain, PG LALA (C2184220946-K): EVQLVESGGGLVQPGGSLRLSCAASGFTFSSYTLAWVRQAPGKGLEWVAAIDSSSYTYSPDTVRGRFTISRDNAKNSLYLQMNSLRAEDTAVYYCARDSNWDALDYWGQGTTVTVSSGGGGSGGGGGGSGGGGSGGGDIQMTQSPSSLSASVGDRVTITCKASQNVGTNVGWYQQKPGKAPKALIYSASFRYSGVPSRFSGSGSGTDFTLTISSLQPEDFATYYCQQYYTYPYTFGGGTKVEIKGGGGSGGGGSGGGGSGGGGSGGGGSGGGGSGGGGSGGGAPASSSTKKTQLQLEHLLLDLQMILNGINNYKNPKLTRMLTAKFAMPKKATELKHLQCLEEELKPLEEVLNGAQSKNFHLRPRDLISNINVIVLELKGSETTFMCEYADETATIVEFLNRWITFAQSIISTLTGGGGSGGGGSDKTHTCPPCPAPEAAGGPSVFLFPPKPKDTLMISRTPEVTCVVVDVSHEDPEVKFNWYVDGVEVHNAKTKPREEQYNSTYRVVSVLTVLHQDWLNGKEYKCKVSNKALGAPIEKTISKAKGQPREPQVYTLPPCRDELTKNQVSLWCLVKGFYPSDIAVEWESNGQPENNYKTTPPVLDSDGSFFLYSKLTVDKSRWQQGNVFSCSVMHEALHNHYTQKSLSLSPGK
notes: also called human TA PD1-IL2v, MT204, non cleavable, N-term; P1AG0929

These binders were tested against T1, PD1 on activated human CD4 and CD8 T cells (human, UniProt Q15116 25-288) (assay: flow cytometry, CD3/CD28-activated human PBMCs gated on CD3+CD8+ T cells, FITC anti-human Fc secondary antibody; no Matriptase digestion described).
T1 construct: whole, on cells; Endogenous PD1 on CD3/CD28-stimulated T cells; also called human PD1; PD1 receptor
Description: (§1) PBMCs were bought from Biomex from a healthy donor (Lot 5000899PB). The PBMCs were stimulated for 3 days with CD3 and CD28 to induce upregulation of PD1 on T cells. Therefore, PBMCs were seeded in medium (RPMI1640, 10% FCS, 2 mM Glutamine) into cell culture flasks that were coated for 1 h at 37° C. with 1 μg/ml CD3 (clone OKT3, 302914, BioLegend). CD28 was added in solution to the PBMCs at a concentration of 1 μg/ml (clone CD28.2, 302914, BioLegend). After three days, PBMCs were harvested and transferred into a 96 well round bottom plate (200′000 cells per well). The cells were washed with FACS buffer (PBS, 2% FBS, 5 mM EDTA, 0.025% NaN3) and stained with 30 μl of corresponding TA PD1-IL2v constructs in FACS buffer for 30 min at 4° C. The cells were washed twice with FACS buffer to remove unbound molecules. Then 30 μl of the diluted FITC anti-mouse Fc specific secondary antibody (1:50 dilution, 115-096-071, Jackson ImmunoResearch) or for the human constructs the diluted FITC anti-human Fc specific secondary antibody (1:50 dilution, 115-096-098, Jackson ImmunoResearch) was added to the cells. After 30 min incubation at 4° C. the cells were washed twice with FACS buffer. To detect T cells, PBMCs were stained with 30 μl of a mixture of CD3 PE/Cyanine7 (clone UCHT1, 300420, BioLegend), CD4 PE (clone RPA-T4, 300508, BioLegend) and CD8 APC (clone SK1, 344722, BioLegend) for 30 min at 4° C. The unbound antibodies were removed by washing twice with FACS buffer. Finally the cells were resuspended in 150 μl FACs buffer and measured using a BD Fortessa gating on CD3+CD4+ cells (CD4 T cells) and CD3+CD8+ cells (CD8 T cells).

T1 sequence (Q15116 25-288): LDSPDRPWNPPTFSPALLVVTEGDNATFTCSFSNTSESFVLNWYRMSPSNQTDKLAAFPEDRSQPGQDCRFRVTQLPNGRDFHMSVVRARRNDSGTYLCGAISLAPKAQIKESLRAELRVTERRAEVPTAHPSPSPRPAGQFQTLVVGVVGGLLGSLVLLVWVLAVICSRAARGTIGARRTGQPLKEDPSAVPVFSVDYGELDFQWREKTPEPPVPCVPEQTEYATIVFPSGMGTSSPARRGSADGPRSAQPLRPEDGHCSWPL

Binder	EC50 (read off the curve) [nM]
B1	~2
B2	~2
B3	~2

These binders were tested against T1, PD1 on activated human CD4 and CD8 T … (assay: flow cytometry, CD3/CD28-activated human PBMCs gated on CD3+CD4+ T cells, FITC anti-human Fc secondary antibody; no Matriptase digestion described).
Description: as §1

Binder	EC50 (read off the curve) [nM]
B1	~2
B2	~2
B3	~2

Each binder was assayed against T1, PD1 on activated human CD4 and CD8 T … (assay: flow cytometry, CD3/CD28-activated human PBMCs gated on CD3+CD8+ T cells, PE anti-human Fc secondary antibody; TA constructs pre-incubated with Matriptase, unmasked controls not).
Description: (§2) Three formats of TA PD1-IL2v molecules and respective controls were assessed for their capacity to bind to activated PD1 positive CD8 T cells and CD4 T cells within PBMCs in comparison to the respective unmasked molecules.
(§3) PBMCs were purchased from Biomex from a healthy donor (Lot 5000729PB). The PBMCs were stimulated for three days with CD3 and CD28 to induce upregulation of PD1 on T cells. Therefore, PBMCs were seeded in medium (RPMI1640, 10% FCS, 2 mM Glutamine) into cell culture flasks that were coated for 1 hour at 37° C. with 1 μg/ml CD3 (clone OKT3, 302914, BioLegend). CD28 was added in solution to the PBMCs at a concentration of 1 μg/ml (clone CD28.2, 302914, BioLegend). After three days, PBMCs were harvested and transferred into a 96 well round bottom plate (200′000 cells per well). The cells were washed with FACS buffer (PBS, 2% FBS, 5 mM EDTA, 0.025% NaN3) and stained with 30 μl of corresponding TA PD1-IL2v constructs in FACS buffer for 30 min at 4° C. Prior to the staining, 20 μg of the TA PD1-IL2v constructs were digested with 4 μl Matriptase (Enzo ˜2.5 U/μl, ALX-201-246-U25, Lot 12152015, or without Matriptase for the unmasked controls) for 2 hours at 37° C. in 40 μl Matriptase buffer (50 mM Tris, 50 mM NaCl, 0.01% Tween 20, pH 9.0). After the staining, the cells were washed twice with FACS buffer to remove unbound molecules. Then 30 μl of the diluted PE anti-human Fc specific secondary antibody (1:50 dilution, 109-116-170, Jackson ImmunoResearch) was added to the cells. After 30 min incubation at 4° C. the cells were washed twice with FACS buffer. To detect T cells, PBMCs were stained with 30 μl of a mixture of CD3 PE/Cyanine7 (clone UCHT1, 300420, BioLegend), CD4 FITC (clone RPA-T4, 300528, BioLegend) and CD8 APC/Cyanine7 (clone HIT8a, 300926, BioLegend) for 30 min at 4° C. The unbound antibodies were removed by washing twice with FACS buffer. Finally the cells resuspended in 150 μl FACS buffer and measured using a BD Fortessa gating on CD3+CD4+ cells (CD4 T cells) and CD3+CD8+ cells (CD8 T cells).

Binder	EC50 (read off the curve) [nM]
B1	~1
B2	~0.8
B3	~1
B4	~1
B5	~2

These binders were tested against T1, PD1 on activated human CD4 and CD8 T … (assay: flow cytometry, CD3/CD28-activated human PBMCs gated on CD3+CD4+ T cells, PE anti-human Fc secondary antibody; TA constructs pre-incubated with Matriptase, unmasked controls not).
Description: as §2, §3

Binder	EC50 (read off the curve) [nM]
B1	~0.8
B2	~0.7
B3	~0.8
B4	~0.8
B5	~1

Source: US20240376171A1 (Hoffmann-La Roche, published 2024)
